The values that follow come from PMC10746170.

The data set concerns T1, His6-GacA (Acinetobacter baumannii (strain ATCC 17978?)), ORF:4711fff2.
T1 sequence: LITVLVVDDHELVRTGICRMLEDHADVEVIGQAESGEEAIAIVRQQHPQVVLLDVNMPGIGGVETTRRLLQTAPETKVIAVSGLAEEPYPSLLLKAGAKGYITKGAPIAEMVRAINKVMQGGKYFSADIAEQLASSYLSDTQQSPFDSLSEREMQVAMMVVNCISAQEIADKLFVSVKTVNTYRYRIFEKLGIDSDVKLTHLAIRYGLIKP
The experiment in a line: EMSA. Particulars: 20 mM Tris pH 8.0, 150 mM NaCl, 10 mM EDTA, 100 ug/mL BSA, 20 mM acetyl phosphate, 10% glycerin, 1 mM DTT; ~10 nM probe; 20 min, room temperature; 6% native …. A general note: In EMSA bound probe runs differently from free probe, usually more slowly.

Take “TTCTATAAATAAGAAATAAAGAATTTATTAATGCGTATAGTGCACAGCAAATATTATAAATTAATAAAGGTTGGTTAAAGGTTTGTTTTACAAGTATATGAAATGAATTAAAATTTTTTAATTTTATTTTTACGGTGTAAGCTTGTGATAAATAAAAATTAATAGCTAGAAAACTTATTTAAAACTTTTTAGTCTAATAGCATATTAAATTAAATTGAGCTTTATTATTTATAGCGAAATATATAACACTCGCTGAAACTTGGTTGATTTTTAATAATCAAGATAATAAAGGAAAAGGAT (double strand) [PDC promoter probe]”: the binding result is recorded as “binds”. With “CTCGTCATTATTAAGGCACGAGCTTGAATTAAACTGCACATCTAGTGTCAGTTGCTTATAGTGGCTATTGTCTTAGTATTTTTAAAAATCTGCAATATCTTTTTTTTAAAATTACCTAAGAAAATAAAAATATTTCAGAAAACTTTTTAGTTTTAAAAAATTTATAGTTTCTAATTATAAATAGCTTGCACAAAAAAACCAGCTTTAAAGCTGGTCTATTTTTAAATTATCACGGCGTATGAAGCTGTGTTTCCGTGTACGGACCTATTTCCGTTTCCTGTATTCCTCCGCTTCCGGAAT (double strand) [dotI promoter probe]” the entry was “binds”.
